Patent US20210054047A1, “NOVEL ANTICANCER FUSION PROTEIN AND USE THEREOF” (KOREA INSTITUTE OF SCIENCE AND TECHNOLOGY, priority 2018, published 2021)

Assays:
[1] = test system: HT29 cells; assay: Annexin V early apoptosis flow cytometry, HT29; type: cell-based, human; conditions: HT29, low concentrations, 24 hours
Description: (§1) HepG2, HT29, or MCF7 cells (1.5×10^4) were cultured in a 96-well plate for 1 day, after which DOX-TTPNs, DOX-FTNs, free DOX, empty TTPNs, or buffer was added to each well. After 24 hours, cell viability was measured using a CCK-8 assay (Dojindo Molecular Technologies) according to the manufacturer's instructions. For analysis of early apoptosis, HT29 cells in 6-18 well culture plate were treated with DOX-TTPNs, free DOX, empty TTPNs, or buffer for 24 hours. Thereafter, cells were incubated with Alexa Fluor 488-conjugated annexin V (Invitrogen) 20 for 15 minutes, then analyzed using an Accuri™ C6 flow cytometer (BD Biosciences) and FlowJo 21 v10 software.

[2] = test system: HT29 cells; assay: Cell viability, CCK-8 assay, HT29; type: cell-based, human; conditions: HT29, 250 nM (DOX 3.5 μg/ml), 24 hours
Description: as §1

[3] = test system: DR5; assay: Western blot time course of DR5 levels in HT29; type: cell-based, human; conditions: HT29, 4, 12 and 24 hours
[4] = test system: XIAP; assay: Western blot of HT29 lysates: XIAP; type: cell-based, human; conditions: HT29, 24 hours
Description: (§2) After incubating HT29 cells with 50 nM DOX-TTPNs, DOX-FTNs, free DOX, or buffer for 24 hours, cells were lysed with radioimmunoprecipitation assay (RIPA) buffer (Cell Signaling Technology) and the concentration of proteins was measured using a DC protein assay kit (Bio-Rad). Equal amounts of proteins (30 μg) were resolved by SDS-PAGE and transferred to nitrocellulose membranes. After blocking with 5% skim milk in Tris-buffered saline containing 0.1% Tween-20 (TBST), membranes were incubated first with anti-Cl-PARP, anti-Cl-caspase-6, anti-cFLIP, anti-Bcl-xL, anti-XIAP, anti-Cl-caspase-3, or anti-GAPDH primary antibody (Cell Signaling Technology), and then with anti-mouse or anti-rabbit secondary antibodies (Sigma-Aldrich), as appropriate. Immunoreactive proteins were visualized using enhanced chemiluminescence (ECL) chemical reagents (Bio-Rad) and ChemiDoc (Bio-Rad), and were analyzed using ImageJ software.

[5] = test system: PARP; assay: Western blot of HT29 lysates: PARP; type: cell-based, human; conditions: HT29, 24 hours
Description: as §2

[6] = test system: HT29 tumor; assay: Antitumor efficacy, HT29 xenograft; type: in vivo, mouse; conditions: i.v. five times every 2 days, DOX-TTPNs 30 mg/kg, DOX 0.4 mg/kg, DOX-FTNs 15 mg/kg, empty TTPNs 30 mg/kg
[7] = test system: HT29 tumor; assay: TUNEL analysis of HT29 tumor tissue; type: in vivo, mouse; conditions: HT29 tumor tissue at the end of the study
[8] = mice (Chatterjee et al.); cited from earlier work
[9] = test system: cleaved form of caspase-3; assay: Western blot of HT29 lysates: cleaved caspase-3; type: cell-based, human; conditions: HT29, 50 nM, 24 hours
Description: as §2

[10] = within 21 days (Kih et al.); cited from earlier work
[11] = test system: HepG2 tumor; assay: Antitumor efficacy, HepG2 xenograft; type: in vivo, mouse; conditions: i.v. every 2 days, TTPN 23 mg/kg, mTRAIL 12 mg/kg
Excerpt: (§3) In the evaluation of the anti-tumor effect of the present invention, BALB/c nude male mice (6-7 weeks old) were used as an animal model. Particularly, HT29 cells (5×10^6) and HepG2 cells (5×10^6) were subcutaneously inoculated into the left dorsal flank of BALB/c nude mice, respectively. After a volume of tumors reached ˜80-100 mm^3, mice were randomly divided into the 14 following five treatment groups (6 mice/group); DOX-TTPNs, DOX-FTNs, free DOX, empty TTPNs, and buffer. Mice were intravenously injected five times, once every 2 days, and volume of tumors was determined as 1/2(Length×Width^2). Apoptotic cell death in tumor tissues was analyzed using TUNEL staining (In situ Cell Death Detection kit; Roche), and cells were stained with DAPI (4′,6-diamidino-2-phenylindole), as previously described (Kih et al., Biomaterials 180: 67-77, 2018). Apoptotic cells were visualized under a Nikon Eclipse Ti microscope (Nikon) and quantified as the number of TUNEL-positive cells per total number of cells using ImageJ software. After 21 days from injecting tumor cells, tumor tissues were excised from the experimental mice, and cryo-sections (3.5 μm) were fixed with 10% neutral buffered formalin and paraffin-embedded tissue blocks.
(§4) In addition, to investigate whether tumor growth inhibition by TTPN is induced by apoptosis-inducing activity on tumor cells, tumor tissues from the treated mice were analyzed. On the 15th day after the first injection, mice were euthanized, and apoptosis of tumor tissues was analyzed using terminal deoxynucleotidyl transferase dUTP nick end labeling (TUNEL) staining.

[12] = test system: HepG2 cells; assay: Cell viability, CCK-8 assay, HepG2; type: cell-based, human; conditions: HepG2
Description: After culturing for 24 hours, cell viability was measured using a cell counting kit (CCK)-8 assay (Dojindo Molecular Technologies, Gaithersburg, Md.). The plate was then read with an absorbance microplate reader (Spectramax 340, Molecular Devices Corporation) at a wavelength of 450 nm and 50% effective by regression analysis using SigmaPlot software (Systat Software, Inc., San Jose, Calif.). The concentration value was calculated.

[13] = molecular target: TRAIL R1 (death receptor 4, DR4) on the surface of tumor cells (human, UniProt O00220 24-468); assay: cell-based or functional assay
[14] = molecular target: TRAIL R2 (death receptor 5, DR5) on the surface of tumor cells (human, UniProt O14763 56-440); assay: cell-based or functional assay
[15] = In vitro stability (soluble protein in buffer over time); type: physicochemical
Description: The stability of TTPN, DOX-TTPN and mTRAIL was investigated by measuring changes of concentration in a suitable buffer solution. […] At predetermined times, aggregated proteins were collected at 13,000 rpm for 10 minutes, and the concentration of soluble DOX-TTPN and TTPN in the supernatant was measured using absorbance in UV280.

[16] = molecular target: T1, DR4 (Homo sapiens, UniProt O00220); assay: SPR binding to immobilized DR4-Fc; conditions: DR4-Fc immobilized, 25° C.
T1 construct: purchased R&D systems 347-DR-100
Description: (§5) Binding experiments of TTPN and mTRAIL to TRAIL receptors DR4 and DR5 were analyzed at 25° C. using a surface plasmon resonance apparatus (SR7500 DC, Reichert Inc., NY, USA). DR4 and DR5-fc chimeric proteins (R&D systems 347-DR-100, 631-T2-100) were immobilized on the surface of the Planar Protein A sensor chip (Reichert, 13206069) and the receptors were coated at a level of 300 to 500 resonance units. SPR kinetic titrations were performed by adding 250 μl of TTPN and mTRAIL with different concentrations in the range of 1.56 to 400 nM and 0.1 to 25.6 μM, respectively, increasing by four times. Each analyte was run at 50 μL/min using running and sample buffer (0.5 M Tris-HCl (pH 7.4), 150 mM NaCl, 0.005% Tween 20), and binding of the ligand to the receptor was performed and monitored in real time. For titration sensorgrams, a simple 1:1 Langmuir interaction model (A+B↔AB) was applied using the data analysis program Scrubber 2.0 (BioLogic Software, Australia, and KaleidaGraph Software, Australia) and CLAMP software.
(§6) The affinity KD was determined from the formula of KD=kd/ka. Results are based on representative sensorgrams obtained from saturation binding reactions averaged over at least three independent runs of SPR measurements (FIG. 31).

[17] = test system: HepG2 cells; assay: Annexin V/PI flow cytometry of apoptosis, HepG2; type: cell-based, human; conditions: for surviving tumor cells (Annexin V/PI double negative): 24 hours
Description: FIG. 19 is a series of histograms representing flow cytometry analysis of TRAIL-mediated apoptosis of HepG2 cells as an analysis of in vitro TTPN-mediated apoptosis on TRAIL-sensitive-HepG2 cells. Cells were incubated for 24 hours in the presence of different concentrations of mTRAIL and TTPN and analyzed by Annexin V/PI double staining.
In addition, to investigate whether apoptosis induced by TTPN is induced by the pro-apoptosis pathway of tumor cells, fluorescence-activated cell sorting (FACS) using double staining of Annexin V/propidium iodide (PI) was performed. […] (FIG. 21).

[18] = molecular target: T2, DR4-Fc chimeric protein (R&D systems 347-DR-100) (UniProt O00220 24-239); assay: SPR, DR4-Fc captured on Protein A chip, 25° C., 1:1 Langmuir model
T2 construct: Bought (R&D systems 347-DR-100); Captured on a Protein A sensor chip; also called TRAIL R1; death receptor 4; Fc part of the bought chimera not given
Description: DR4 and DR5-fc chimeric proteins (R&D systems 347-DR-100, 631-T2-100) were immobilized on the surface of the Planar Protein A sensor chip (Reichert, 13206069) and the receptors were coated at a level of 300 to 500 resonance units. […] Each analyte was run at 50 μL/min using running and sample buffer (0.5 M Tris-HCl (pH 7.4), 150 mM NaCl, 0.005% Tween 20), and binding of the ligand to the receptor was performed and monitored in real time. For titration sensorgrams, a simple 1:1 Langmuir interaction model (A+B↔AB) was applied using the data analysis program Scrubber 2.0 (BioLogic Software, Australia, and KaleidaGraph Software, Australia) and CLAMP software.
The affinity KD was determined from the formula of KD=kd/ka.

[19] = molecular target: T3, DR5 (Homo sapiens, UniProt O14763); assay: SPR binding to immobilized DR5-Fc
T3 construct: purchased R&D systems 631-T2-100
Description: as §5, §6

[20] = test system: HepG2 tumor; assay: TUNEL analysis of HepG2 tumor tissue; type: in vivo, mouse; conditions: 15th day after first injection
Excerpt: as §3, with “After 21 days from injecting tumor cells, tumor tissues were excised from the experimental mice, and cryo-sections (3.5 μm) were fixed with 10% neutral buffered formalin and paraffin-embedded tissue blocks.” left out
as §4

COc1cccc2c1C(=O)c1c(O)c3c(c(O)c1C2=O)C[C@@](O)(C(=O)CO)C[C@@H]3O[C@H]1C[C@H](N)[C@H](O)[C@H](C)O1 [free DOX, doxorubicin, reference compound]
induction of early apoptosis [1]: ineffective in inducing apoptosis | cell death compared with controls [2]: 36% | DR5 expression levels over time [3]: substantial increase in DR5 expression at 4 hours | decrease in XIAP levels compared with buffer treatment [4]: 34 fold | increase in PARP relative to buffer-treated controls (defined as 1) [5]: 811 fold | decrease of tumor volumes [6]: no significant tumor-inhibition effect | TUNEL-positive tumor cells [7]: 0.07% | dose at which side effects can be exhibited [8]: greater than 1 mg/kg | cleaved caspase-3 (and PARP) expression [9]: little change

B1: monomeric TRAIL (mTRAIL) extracellular domain (ligand)
chain: MTSEETISTVQEKQQNISPLVRERGPQRVAAHITGTRGRSNTLSSPNSKNEKALGRKINSWESSRSGHSFLSNLHLRNGELVIHEKGFYYIYSQTYFRFQEEIKENTKNDKQMVQYIYKYTSYPDPILLMKSARNSCWSKDAEYGLYSIYQGGIFELKENDRIFVSVTNEHLIDMDHEASFFGAFLVG
notes: Expressed in E. coli from pET28a-mTRAIL and purified on Ni-NTA; a vector tag is not spelled out
fraction showing rapid aggregation [10]: ~50% | inhibition of tumor volume [11]: 25.98% | IC50 relative to TTPN [12]: 30 times | IC50, cell viability of HepG2 cells (CCK-8, 24 hours) [13]: 405 nM | IC50, cell viability of HepG2 cells (CCK-8, 24 hours) [14]: 405 nM | stability in solution ([15]; 15 mg/mL in PBS buffer for 24 hours (FIG. 15)): precipitated and aggregated rapidly | amount in the soluble form, of the initial concentration ([15]; within 2 days, 10 mg/mL (FIG. 16)): 57% | ka [16]: 8.68 (±7.12) · 10^2 M^−1 · S^−1 | kd [16]: 5.27 (±2.14) · 10^−5 s^−1 | surviving tumor cells (Annexin V/PI double negative) ([17]; HepG2, 0.4 nM): 94.3% | surviving tumor cells (Annexin V/PI double negative) ([17]; HepG2, 100 nM): 82.9% | concentration at which Annexin V-positive cells were detected ([17]; HepG2, 24 hours (FIG. 20)): 25 nM | Kd [18]: 247 nM | koff [18]: 5.27e-05 s⁻¹ | kon [18]: 868 M⁻¹ s⁻¹ | ka ([19]; 25° C.): 1.48 (±0.12) · 10^3 M^−1 · S^−1 | kd ([19]; 25° C.): 3.87 (±1.13) · 10^−5 s^−1 | Kd ([19]; KD=kd/ka): 25.4 nM | TUNEL-positive tumor cells [20]: 18.9%
